Reference: the supplement of paper PMC10065799, “High-throughput profiling of sequence recognition by tyrosine kinases and SH2 domains using bacterial peptide display” (eLife, 2023)

Legend:
[1] = test system: AncSZ; test: phosphorylation enrichment, bacterial display (enrichment ratio); higher = better substrate or ligand; peptides without Tyr show the background
[2] = target: EPHB1 (UniProt P54762); test: as above
[3] = target: EPHB2 (UniProt P29323); test: as above
[4] = target: FGFR1 (UniProt P11362); test: as above
[5] = target: FGFR3 (UniProt P22607); test: as above
[6] = test system: Fer (mouse); test: as above
[7] = target: Fes (UniProt P07332); test: as above
Chain of Fes (P07332 whole entry, looked up): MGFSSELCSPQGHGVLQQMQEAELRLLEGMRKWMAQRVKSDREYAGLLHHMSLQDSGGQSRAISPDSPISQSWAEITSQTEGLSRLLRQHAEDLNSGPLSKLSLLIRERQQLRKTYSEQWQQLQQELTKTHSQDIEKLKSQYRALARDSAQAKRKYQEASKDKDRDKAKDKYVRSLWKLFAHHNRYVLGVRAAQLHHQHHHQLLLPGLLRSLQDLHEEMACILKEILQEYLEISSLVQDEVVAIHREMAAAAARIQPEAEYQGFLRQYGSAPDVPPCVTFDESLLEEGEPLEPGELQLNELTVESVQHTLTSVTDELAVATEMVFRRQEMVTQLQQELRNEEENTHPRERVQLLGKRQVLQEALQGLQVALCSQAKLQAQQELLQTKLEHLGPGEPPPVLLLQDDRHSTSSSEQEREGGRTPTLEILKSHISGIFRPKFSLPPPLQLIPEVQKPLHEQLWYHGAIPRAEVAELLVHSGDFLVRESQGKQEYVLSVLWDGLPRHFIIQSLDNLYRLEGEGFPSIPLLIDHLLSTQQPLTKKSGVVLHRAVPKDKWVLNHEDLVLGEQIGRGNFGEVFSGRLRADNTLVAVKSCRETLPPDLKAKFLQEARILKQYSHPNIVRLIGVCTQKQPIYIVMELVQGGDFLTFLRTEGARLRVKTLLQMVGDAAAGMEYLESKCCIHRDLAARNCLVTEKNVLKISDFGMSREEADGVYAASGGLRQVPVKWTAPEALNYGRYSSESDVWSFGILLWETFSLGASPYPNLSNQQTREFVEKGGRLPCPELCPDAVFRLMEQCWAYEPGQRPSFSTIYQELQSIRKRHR

[8] = target: Fyn (UniProt P06241); test: as above
Chain of Fyn (P06241 whole entry, looked up): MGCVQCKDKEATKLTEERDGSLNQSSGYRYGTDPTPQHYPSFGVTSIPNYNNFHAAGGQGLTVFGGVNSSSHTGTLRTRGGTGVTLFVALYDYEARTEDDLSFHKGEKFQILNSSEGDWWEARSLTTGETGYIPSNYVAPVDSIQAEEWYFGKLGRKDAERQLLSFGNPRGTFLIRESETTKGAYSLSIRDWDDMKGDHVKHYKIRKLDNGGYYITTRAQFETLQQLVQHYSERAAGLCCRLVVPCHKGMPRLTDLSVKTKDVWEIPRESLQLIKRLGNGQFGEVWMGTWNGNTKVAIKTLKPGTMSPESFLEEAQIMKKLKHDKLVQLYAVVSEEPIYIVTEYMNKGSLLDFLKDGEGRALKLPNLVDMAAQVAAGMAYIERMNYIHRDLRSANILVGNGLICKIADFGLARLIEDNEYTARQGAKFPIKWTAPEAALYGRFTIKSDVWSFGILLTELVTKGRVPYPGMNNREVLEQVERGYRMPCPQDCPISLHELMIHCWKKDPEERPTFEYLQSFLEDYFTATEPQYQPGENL

[9] = target: Hck (UniProt P08631); test: as above
Chain of Hck (P08631 whole entry, looked up): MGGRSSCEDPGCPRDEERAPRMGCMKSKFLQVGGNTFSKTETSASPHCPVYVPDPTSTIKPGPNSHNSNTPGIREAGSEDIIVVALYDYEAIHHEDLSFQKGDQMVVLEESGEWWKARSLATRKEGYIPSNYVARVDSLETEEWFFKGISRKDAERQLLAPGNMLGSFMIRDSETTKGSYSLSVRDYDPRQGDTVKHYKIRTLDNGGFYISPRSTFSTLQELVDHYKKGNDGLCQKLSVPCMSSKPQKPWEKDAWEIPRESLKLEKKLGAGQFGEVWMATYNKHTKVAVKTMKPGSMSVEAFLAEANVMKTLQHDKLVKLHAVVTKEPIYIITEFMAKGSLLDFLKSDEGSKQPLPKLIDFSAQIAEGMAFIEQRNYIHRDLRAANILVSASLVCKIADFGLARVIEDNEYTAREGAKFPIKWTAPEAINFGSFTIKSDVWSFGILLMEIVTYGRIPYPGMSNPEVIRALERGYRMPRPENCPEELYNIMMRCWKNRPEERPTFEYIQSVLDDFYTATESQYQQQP

[10] = target: Jak2 (UniProt O60674); test: as above
[11] = target: MERTK (UniProt Q12866); test: as above
Chain of MERTK (Q12866 whole entry, looked up): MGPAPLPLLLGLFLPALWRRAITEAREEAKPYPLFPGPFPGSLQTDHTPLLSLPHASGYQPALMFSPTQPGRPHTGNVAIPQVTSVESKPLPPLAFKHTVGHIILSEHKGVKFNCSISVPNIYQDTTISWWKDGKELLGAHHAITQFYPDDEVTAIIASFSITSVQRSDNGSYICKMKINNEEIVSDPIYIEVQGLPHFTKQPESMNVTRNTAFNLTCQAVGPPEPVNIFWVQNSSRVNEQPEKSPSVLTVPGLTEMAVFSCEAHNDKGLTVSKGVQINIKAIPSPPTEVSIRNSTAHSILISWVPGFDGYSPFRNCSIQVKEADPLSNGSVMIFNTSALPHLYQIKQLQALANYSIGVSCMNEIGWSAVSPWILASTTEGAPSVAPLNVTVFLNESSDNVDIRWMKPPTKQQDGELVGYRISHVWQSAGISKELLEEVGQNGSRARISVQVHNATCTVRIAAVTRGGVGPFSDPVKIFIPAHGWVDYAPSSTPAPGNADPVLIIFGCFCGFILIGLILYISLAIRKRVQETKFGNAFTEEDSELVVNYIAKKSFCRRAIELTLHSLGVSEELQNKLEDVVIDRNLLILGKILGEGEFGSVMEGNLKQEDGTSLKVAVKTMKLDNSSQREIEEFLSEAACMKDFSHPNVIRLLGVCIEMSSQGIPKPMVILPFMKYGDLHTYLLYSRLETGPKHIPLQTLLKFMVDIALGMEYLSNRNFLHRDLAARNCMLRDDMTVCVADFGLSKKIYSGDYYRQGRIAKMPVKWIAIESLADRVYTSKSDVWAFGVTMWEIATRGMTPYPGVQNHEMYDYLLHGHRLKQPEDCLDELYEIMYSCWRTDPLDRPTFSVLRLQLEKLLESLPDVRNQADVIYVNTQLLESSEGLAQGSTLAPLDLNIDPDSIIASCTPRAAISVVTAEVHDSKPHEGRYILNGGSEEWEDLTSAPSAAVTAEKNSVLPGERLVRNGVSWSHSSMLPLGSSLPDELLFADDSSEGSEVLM

[12] = test system: c-Abl (mouse); test: as above
[13] = test system: c-Src; test: as above
[14] = target: Grb2 SH2 (UniProt P62993); test: SH2 binding enrichment of the phosphorylated peptide, bacterial display (enrichment ratio); higher = better substrate or ligand; peptides without Tyr show the background
[15] = target: SHP2-C SH2; test: as above
[16] = target: c-Src SH2; test: as above
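Wherever SH2 binding enrichment of the phosphorylated peptide, bacterial display is given: peptide library displayed on the E. coli surface as eCPX fusions, selected cells deep-sequenced, score is each peptide's frequency after selection divided by its frequency in the input.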
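Wherever phosphorylation enrichment, bacterial display is given: 11-residue human phosphosite peptides and single-mutation variants displayed on the E. coli surface, counted by deep sequencing, each peptide's frequency after selection divided by its frequency in the unselected input library; frequency after pTyr selection over input frequency; kinase dosed for 20-30% of maximal phosphorylation in three min.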

Chain of EPHB2 (P29323 whole entry, looked up): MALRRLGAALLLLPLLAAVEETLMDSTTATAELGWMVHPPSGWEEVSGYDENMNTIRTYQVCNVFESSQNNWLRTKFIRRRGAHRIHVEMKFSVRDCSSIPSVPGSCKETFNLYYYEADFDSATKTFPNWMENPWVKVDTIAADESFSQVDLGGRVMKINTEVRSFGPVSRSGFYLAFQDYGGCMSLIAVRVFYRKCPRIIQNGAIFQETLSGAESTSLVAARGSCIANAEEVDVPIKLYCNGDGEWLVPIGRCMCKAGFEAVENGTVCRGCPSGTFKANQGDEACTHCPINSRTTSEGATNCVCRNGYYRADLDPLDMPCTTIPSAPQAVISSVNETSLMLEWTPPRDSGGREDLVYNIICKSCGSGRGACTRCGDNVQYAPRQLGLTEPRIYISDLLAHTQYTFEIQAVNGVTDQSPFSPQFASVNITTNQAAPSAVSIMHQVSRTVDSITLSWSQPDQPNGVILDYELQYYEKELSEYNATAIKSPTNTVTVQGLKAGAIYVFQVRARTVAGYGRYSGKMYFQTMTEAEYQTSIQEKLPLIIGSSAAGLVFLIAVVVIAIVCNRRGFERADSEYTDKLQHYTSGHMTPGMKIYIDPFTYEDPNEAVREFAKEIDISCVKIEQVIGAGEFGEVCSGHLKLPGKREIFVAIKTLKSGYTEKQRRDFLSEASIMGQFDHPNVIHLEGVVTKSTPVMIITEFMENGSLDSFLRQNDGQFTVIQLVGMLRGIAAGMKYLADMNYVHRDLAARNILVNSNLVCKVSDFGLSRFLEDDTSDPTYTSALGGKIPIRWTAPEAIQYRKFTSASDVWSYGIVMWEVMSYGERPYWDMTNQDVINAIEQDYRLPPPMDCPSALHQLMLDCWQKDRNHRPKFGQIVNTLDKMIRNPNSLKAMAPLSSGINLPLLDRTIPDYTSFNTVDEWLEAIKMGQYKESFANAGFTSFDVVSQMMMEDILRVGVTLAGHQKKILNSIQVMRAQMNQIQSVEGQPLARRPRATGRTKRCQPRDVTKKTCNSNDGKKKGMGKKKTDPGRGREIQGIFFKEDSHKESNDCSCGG
Chain of EPHB1 (P54762 whole entry, looked up): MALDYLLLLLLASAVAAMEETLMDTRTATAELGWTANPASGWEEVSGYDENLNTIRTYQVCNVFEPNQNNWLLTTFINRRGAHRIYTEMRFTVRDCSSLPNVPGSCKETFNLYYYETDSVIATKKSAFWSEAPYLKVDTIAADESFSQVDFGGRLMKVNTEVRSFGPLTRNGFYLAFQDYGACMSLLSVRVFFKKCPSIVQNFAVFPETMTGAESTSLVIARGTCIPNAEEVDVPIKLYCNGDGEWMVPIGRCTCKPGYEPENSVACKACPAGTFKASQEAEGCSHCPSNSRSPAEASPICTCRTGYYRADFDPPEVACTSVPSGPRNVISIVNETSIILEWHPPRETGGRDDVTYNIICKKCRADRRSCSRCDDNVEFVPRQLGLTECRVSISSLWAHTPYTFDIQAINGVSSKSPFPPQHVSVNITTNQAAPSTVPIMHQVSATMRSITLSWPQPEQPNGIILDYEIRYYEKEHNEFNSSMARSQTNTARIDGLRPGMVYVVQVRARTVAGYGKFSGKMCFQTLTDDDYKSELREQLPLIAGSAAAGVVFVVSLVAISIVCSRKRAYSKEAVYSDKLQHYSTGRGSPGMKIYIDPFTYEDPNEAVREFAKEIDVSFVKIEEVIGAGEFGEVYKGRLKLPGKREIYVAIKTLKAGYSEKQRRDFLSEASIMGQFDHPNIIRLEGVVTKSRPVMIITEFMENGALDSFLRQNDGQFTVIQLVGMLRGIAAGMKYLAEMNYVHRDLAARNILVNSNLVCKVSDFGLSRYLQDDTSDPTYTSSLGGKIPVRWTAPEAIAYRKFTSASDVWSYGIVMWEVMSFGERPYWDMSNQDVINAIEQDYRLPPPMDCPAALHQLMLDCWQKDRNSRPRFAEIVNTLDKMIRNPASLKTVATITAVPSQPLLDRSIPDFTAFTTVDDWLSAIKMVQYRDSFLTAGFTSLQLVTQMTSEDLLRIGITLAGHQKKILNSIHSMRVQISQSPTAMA

| Sequence | SH2 binding enrichment [14] | SH2 binding enrichment [15] | SH2 binding enrichment [16] | phosphorylation enrichment [1] | phosphorylation enrichment [2] | phosphorylation enrichment [3] | phosphorylation enrichment [4] | phosphorylation enrichment [5] | phosphorylation enrichment [6] | phosphorylation enrichment [7] | phosphorylation enrichment [8] | phosphorylation enrichment [9] | phosphorylation enrichment [10] | phosphorylation enrichment [11] | phosphorylation enrichment [12] | phosphorylation enrichment [13] |
| --- | --- | --- | --- | --- | --- | --- | --- | --- | --- | --- | --- | --- | --- | --- | --- | --- |
| PVGDVYKKKGL [NMNAT1_Y55_A54V] | 0.837 | 0.748 | 0.55 | 0.534 | 0.451 | 0.567 | 0.498 | 0.915 | 0.487 | 0.557 | 0.465 | 0.646 | 0.405 | 0.491 | 0.417 | 0.488 |
| PVGVLYEVKVF [PTS_Y128_K129E_YF] | 0.992 | 0.836 | 0.611 | 2.17 | 1.5 | 0.91 | 1.02 | 1.41 | 2.05 | 2.67 | 0.849 | 0.986 | 2.08 | 1.16 | 1.29 | 0.89 |
| PYAEPYADYGG [APBA1_Y187_S184A] | 0.836 | 0.695 | 7.71 | 2.86 | 1.16 | 1.4 | 2.13 | 1.76 | 0.861 | 3.07 | 1.33 | 1.19 | 2.47 | 0.853 | 1.82 | 5.47 |
| QDGYSYLSRQM [LDLR_Y847_P848L] | 0.747 | 2.11 | 8.2 | 0.71 | 0.517 | 0.467 | 0.995 | 0.664 | 0.562 | 0.94 | 0.305 | 0.646 | 0.784 | 1.26 | 0.541 | 0.464 |
| QELRRYLKSGV [MICA_Y194] | 0.764 | 0.384 | 0.465 | 0.652 | 0.765 | 0.875 | 0.582 | 0.804 | 0.626 | 0.787 | 0.553 | 0.957 | 0.566 | 0.544 | 0.659 | 0.577 |
| QGIIIYRAAYF [SLC25A4_Y187] | 1.01 | 0.642 | 0.515 | 1.32 | 0.945 | 0.767 | 0.688 | 1.39 | 0.773 | 1.91 | 0.574 | 0.639 | 1.13 | 0.541 | 1.28 | 0.544 |
| QKTGDYYDLYG [PTPN11_Y62_N58K] | 0.899 | 1.04 | 1.38 | 2.31 | 11 | 6.98 | 20.8 | 16.2 | 0.586 | 1.33 | 3.77 | 4.6 | 2.24 | 3.24 | 1.21 | 3.77 |
| QLATEYVFSDF [PANX1_Y10] | 0.895 | 0.679 | 0.511 | 0.996 | 0.615 | 0.62 | 0.716 | 1.21 | 0.424 | 1.85 | 0.762 | 0.703 | 1.57 | 0.617 | 0.907 | 0.837 |

Further lines, with some results ahead:

| SH2 binding enrichment [14] | SH2 binding enrichment [15] | SH2 binding enrichment [16] | Sequence | phosphorylation enrichment [1] | phosphorylation enrichment [2] | phosphorylation enrichment [3] | phosphorylation enrichment [4] | phosphorylation enrichment [5] | phosphorylation enrichment [6] | phosphorylation enrichment [7] | phosphorylation enrichment [8] | phosphorylation enrichment [9] | phosphorylation enrichment [10] | phosphorylation enrichment [11] | phosphorylation enrichment [12] | phosphorylation enrichment [13] |
| --- | --- | --- | --- | --- | --- | --- | --- | --- | --- | --- | --- | --- | --- | --- | --- | --- |
| 0.968 | 0.879 | 0.615 | PVKAAYQKVVA [HBB_Y131_Q128K] | 0.714 | 1.14 | 0.491 | 0.539 | 0.766 | 0.588 | 0.823 | 0.648 | 0.539 | 0.95 | 0.523 | 2.43 | 0.753 |
| 0.757 | 0.805 | 0.432 | QAIDEYEKWLE [MAP9_Y603_N601D] | 1.5 | 1.06 | 0.716 | 0.515 | 1.34 | 0.581 | 1.41 | 0.66 | 0.607 | 1.46 | 0.996 | 0.85 | 0.479 |
| 0.816 | 2.39 | 1.97 | QDRTFYESVRT [SPEN_Y633_YF] | 1.1 | 0.74 | 0.579 | 0.529 | 0.686 | 8.88 | 1.04 | 1.21 | 2.43 | 0.564 | 1.04 | 0.717 | 1.29 |
| 0.702 | 1.21 | 0.475 | QEIATYRRLQE [KRT14_Y415_L419Q] | 0.926 | 0.568 | 0.721 | 0.699 | 0.512 | 0.506 | 0.803 | 0.578 | 0.482 | 1.51 | 0.7 | 1.1 | 0.717 |
| 1.02 | 0.854 | 0.583 | QKTGDYFDLFG [PTPN11_Y62_N58K_YF] | 2.17 | 11 | 6.35 | 20.1 | 17 | 0.434 | 1.04 | 0.971 | 0.442 | 7.57 | 1.04 | 0.815 | 0.639 |
| 1.09 | 1.17 | 1 | QLHREYCLSPR [HJURP_Y445] | 1.38 | 0.784 | 0.786 | 0.898 | 0.733 | 0.765 | 1.12 | 0.92 | 0.889 | 0.877 | 0.887 | 1.13 | 1.34 |
| 0.871 | 0.703 | 0.597 | QMRLKYSQSDL [SMC1A_Y714] | 0.704 | 0.335 | 0.476 | 0.437 | 0.453 | 0.365 | 0.863 | 0.251 | 0.369 | 0.611 | 0.296 | 0.632 | 0.481 |
| 0.795 | 0.689 | 0.409 | QNTGDYFDLFG [PTPN11_Y62_YF] | 8.28 | 23.3 | 20.4 | 26.8 | 23.3 | 0.753 | 1.49 | 1.26 | 1.3 | 11.6 | 3.03 | 1.48 | 1.56 |
| 0.812 | 1 | 0.486 | QPAGNYSLSSV [ARFGAP3_Y473] | 0.985 | 0.866 | 0.638 | 0.414 | 0.75 | 0.623 | 0.946 | 0.424 | 0.715 | 0.874 | 0.93 | 0.996 | 0.798 |
